Source: patent publication US20230048046A1 (CUGENE, published 2023)

B1: P-0176, IL-15i1 (GS insertion after N95) in IL-15/IL-15Rα heterodimeric Fc fusion format (Fc fusion)
chain 1: DKTHTCPPCPAPEAAGAPSVFLFPPKPKDTLMISRTPEVTCVVVDVSHEDPEVKFNWYVDGVEVHNAKTKPREEQYNSTYRVVSVLTVLHQDWLNGKEYKCKVSNKALPAPIEKTISKAKGQPREPQVYTLPPCREEMTKNQVSLSCAVKGFYPSDIAVEWESNGQPENNYKTTPPVLDSDGSFFLVSKLTVDKSRWQQGNVFSCSVMHEALHNHYTQKSLSLSPGEPKSSDKTHTSPPSPNWVNVISDLKKIEDLIQSMHIDATLYTESDVHPSCKVTAMKCFLLELQVISLESGDASIHDTVENLIILANNSLSSNGNVTESGCKECEELEEKNGSIKEFLQSFVHIVQMFINTS
chain 2: DKTHTCPPCPAPEAAGAPSVFLFPPKPKDTLMISRTPEVTCVVVDVSHEDPEVKFNWYVDGVEVHNAKTKPREEQYNSTYRVVSVLTVLHQDWLNGKEYKCKVSNKALPAPIEKTISKAKGQPREPQVCTLPPSREEMTKNQVSLWCLVKGFYPSDIAVEWESNGQPENNYKTTPPVLDSDGSFFLYSKLTVDKSRWQQGNVFSCSVMHEALHNHYTQKSLSLSPGEPKSSDKTHTSPPSPITCPPPMSVEHADIWVKSYSLYSRERYICNSGFKRKAGTSSLTECVLNKATNVAHWTTPSLKCIRDPALVHQRPAPP
B2: P-0177, IL-15i2 (GGSGG insertion after N95) in IL-15/IL-15Rα heterodimeric Fc fusion format (Fc fusion)
chain 1: DKTHTCPPCPAPEAAGAPSVFLFPPKPKDTLMISRTPEVTCVVVDVSHEDPEVKFNWYVDGVEVHNAKTKPREEQYNSTYRVVSVLTVLHQDWLNGKEYKCKVSNKALPAPIEKTISKAKGQPREPQVYTLPPCREEMTKNQVSLSCAVKGFYPSDIAVEWESNGQPENNYKTTPPVLDSDGSFFLVSKLTVDKSRWQQGNVFSCSVMHEALHNHYTQKSLSLSPGEPKSSDKTHTSPPSPNWVNVISDLKKIEDLIQSMHIDATLYTESDVHPSCKVTAMKCFLLELQVISLESGDASIHDTVENLIILANNSLSSNGNVTESGCKECEELEEKNGGSGGIKEFLQSFVHIVQMFINTS
chain 2: B1 chain 2
B3: huIL-15Rβ-6His (receptor, human, UniProt P14784 27-239, looked up)
chain: AVNGTSQFTCFYNSRANISCVWSQDGALQDTSCQVHAWPDRRRWNQTCELLPVSQASWACNLILGAPDSQKLTTVDIVTLRVLCREGVRWRVMAIQDFKPFENLRLMAPISLQVVHVETHRCNISWEISQASHYFERHLEFEARTLSPGHTWEEAPLLTLKQKQEWICLETLTPDTQYEFQVRVKPLQGEFTTWSPWSQPLAFRTKPAALGKD
notes: Coated on the ELISA plate; also called IL-15Rβ subunit; huIL-15R/3-6His (so in the source); not shown: 6His tag per the name

How the values were obtained:
huIL-15Rβ-6His [1] = molecular target: B3; assay: ELISA, huIL-15Rβ-6His coated, anti-human IgG Fc-HRP detection
Procedure: (§1) The binding activity was tested in ELISA assay. Briefly, Nunc Maxisorp (ThermoFisher) plates were coated overnight at 4° C. with huIL-15R/3-6His at 1 μg/well (100 μl/well) in bicarbonate buffer pH 9.4 (ThermoFisher). After washing 3 times with PBS/0.05% Tween20, plates were incubated with SuperBlock (300 μl/well) at room temperature for 2 hrs. to block nonspecific binding. After washing, IL-15 compounds each at 3-fold serial dilutions with blocking buffer were added to the plates (100 μl/well) and incubated at room temperature for 1 hr. After washing, the Fc fusions were detected by 1 hr. incubation at room temperature with a goat anti-human IgG Fc secondary antibody conjugated with horseradish peroxidase (HRP) at 1:5000 dilution in blocking buffer (ThermoFisher) (100 μl/well). After washing, TMB substrate (ThermoFisher) was added (100 ul/well). Plates were sealed and incubated 5-20 min at room temperature in dark. Reaction was stopped by adding 2N sulfuric acid (Ricca Chemical) (50 uL/well) and absorbance was read at 450-590 nm.
(§2) The IL-15 variants have amino acid deletion, insertion or point mutations introduced in the human IL-15 peptide. […]

huIL-15Rβ-6His [2] = molecular target: B3; assay: ELISA EC50 against P-0153 (IL-15 wild type)
Procedure: as §1, §2

[3] = molecular target: P-0313, C-terminal bivalent IL-15 S58D/IL-15Rα (non-covalent) Fc fusion protein (human, UniProt Q13261 31-107); assay: ELISA

Binder | EC50 (huIL-15Rβ-6His [1]) [nM] | Fold change (huIL-15Rβ-6His [2]) [fold] | binding result [3]
B1 | 10.2 | 16 | –
B2 | 38 | 59 | –
B3 | – | – | binds
